From PMC6935017 (Cell, 2018)

Biological target: the molecule itself
Assay: crystal structure

Protein	stoichiometry N
Streptococcus thermophilus Csm2 (natural protein, Streptococcus thermophilus ND03, UniProt A0A0A7HIX1 1-121, looked up) MAILTDENYVDKAERAISLLEKDNKGNYLLTTSQIRKLLSLCSSLYDRSKERKFDELINDVSYLRVQFVYQAGREIAVKDLIEKAQILEALKEIKDRETLQRFCRYMEALVAYFKFYGGKD	2
Streptococcus thermophilus Csm3 (natural protein, Streptococcus thermophilus ND03) MTFAKIKFSAQIRLETGLHIGGSDAFAAIGAIDSPVIKDPITNIPIIPGSSLKGKMRTLLAKVYNEKVAEKPSDDSDILSRLFGNSKDKRFKMGRLIFRDAFLSNADELDSLGVRSYTEVKFENTIDRITAEANPRQIERAIRNSTFDFELIYEITDENENQVEEDFKVIRDGLKLLELDYLGGSGSRGYGKVAFEKLKATTVFGNYDVKTLNELLTAEV	3
